Measured values published in FireProtDB (doi:10.1021/bi980431i).

B1: Lysozyme C, P61626 (parent)
chain: MKALIVLGLVLLSVTVQGKVFERCELARTLKRLGMDGYRGISLANWMCLAKWESGYNTRATNYNAGDRSTDYGIFQINSRYWCNDGKTPGAVNACHLSCSALLQDNIADAVACAKRVVRDPQGIRAWVAWRNRCQNRDVRQYVQGCGV

Variants of: B1
Conditions: Homo sapiens; pH 2.58; Thermal; DSC; glycine 0.05 M; reversible: yes; structure 1LZ1; whole UniProt chain shown

| Variant | Tm [°C] | heat capacity change of unfolding [kcal/mol/K] | unfolding enthalpy (calorimetric) [kcal/mol] | unfolding enthalpy (van 't Hoff) [kcal/mol] |
| --- | --- | --- | --- | --- |
| MKALIVLGLVLLSVTVQGKVFERCELARTLKRLGMDGYRGISLANWMCLAKWESGYNTRATNYNAGDRSTDYGIFQINSRFWCNDGKTPGAVNACHLSCSALLQDNIADAVACAKRVVRDPQGIRAWVAWRNRCQNRDVRQYVQGCGV [Y81F] | 61.9 | 1.53 | 106 | 112 |

Same assay, conditions: Homo sapiens; pH 2.7; 64.9 °C; Thermal; DSC; glycine 0.05 M; reversible: yes; structure 1LZ1; whole UniProt chain shown

| Variant | ddG of mutation (higher = less stable) [kcal/mol] | heat capacity change of unfolding [kcal/mol/K] |
| --- | --- | --- |
| MKALIVLGLVLLSVTVQGKVFERCELARTLKRLGMDGYRGISLANWMCLAKWESGYNTRATNYNAGDRSTDYGIFQINSRFWCNDGKTPGAVNACHLSCSALLQDNIADAVACAKRVVRDPQGIRAWVAWRNRCQNRDVRQYVQGCGV [Y81F] | 0.24 | 1.53 |
| MKALIVLGLVLLSVTVQGKVFERCELARTLKRLGMDGYRGISLANWMCLAKWESGYNTRATNYNAGDRSTDFGIFQINSRYWCNDGKTPGAVNACHLSCSALLQDNIADAVACAKRVVRDPQGIRAWVAWRNRCQNRDVRQYVQGCGV [Y72F] | 0.96 | 1.67 |
| MKALIVLGLVLLSVTVQGKVFERCELARTLKRLGMDGYRGISLANWMCLAKWESGFNTRATNYNAGDRSTDYGIFQINSRYWCNDGKTPGAVNACHLSCSALLQDNIADAVACAKRVVRDPQGIRAWVAWRNRCQNRDVRQYVQGCGV [Y56F] | 0.19 | 1.29 |

Same assay, conditions: Homo sapiens; pH 2.7; Thermal; DSC; glycine 0.05 M; reversible: yes; structure 1LZ1; whole UniProt chain shown

| Variant | Tm [°C] | change of melting temperature, mutant - wild type (higher = more stable) [°C] | heat capacity change of unfolding [kcal/mol/K] | unfolding enthalpy (calorimetric) [kcal/mol] | unfolding enthalpy (van 't Hoff) [kcal/mol] |
| --- | --- | --- | --- | --- | --- |
| MKALIVLGLVLLSVTVQGKVFERCELARTLKRLGMDGYRGISLANWMCLAKWESGYNTRATNYNAGDRSTDYGIFQINSRFWCNDGKTPGAVNACHLSCSALLQDNIADAVACAKRVVRDPQGIRAWVAWRNRCQNRDVRQYVQGCGV [Y81F] | 64.2 | -0.7 | 1.53 | 111 | 117 |
| MKALIVLGLVLLSVTVQGKVFERCELARTLKRLGMDGYRGISLANWMCLAKWESGYNTRATNYNAGDRSTDFGIFQINSRYWCNDGKTPGAVNACHLSCSALLQDNIADAVACAKRVVRDPQGIRAWVAWRNRCQNRDVRQYVQGCGV [Y72F] | 61.9 | -3 | 1.67 | 110 | 117 |
| MKALIVLGLVLLSVTVQGKVFERCELARTLKRLGMDGYRGISLANWMCLAKWESGFNTRATNYNAGDRSTDYGIFQINSRYWCNDGKTPGAVNACHLSCSALLQDNIADAVACAKRVVRDPQGIRAWVAWRNRCQNRDVRQYVQGCGV [Y56F] | 64.3 | -0.6 | 1.29 | 114 | 117 |

Same assay, conditions: Homo sapiens; pH 3; Thermal; DSC; glycine 0.05 M; reversible: yes; structure 1LZ1; whole UniProt chain shown

| Variant | Tm [°C] | heat capacity change of unfolding [kcal/mol/K] | unfolding enthalpy (calorimetric) [kcal/mol] | unfolding enthalpy (van 't Hoff) [kcal/mol] |
| --- | --- | --- | --- | --- |
| MKALIVLGLVLLSVTVQGKVFERCELARTLKRLGMDGYRGISLANWMCLAKWESGYNTRATNYNAGDRSTDYGIFQINSRFWCNDGKTPGAVNACHLSCSALLQDNIADAVACAKRVVRDPQGIRAWVAWRNRCQNRDVRQYVQGCGV [Y81F] | 69.5 | 0.6 | 117 | 122 |

Same assay, conditions: Homo sapiens; pH 3.17; Thermal; DSC; glycine 0.05 M; reversible: yes; structure 1LZ1; whole UniProt chain shown

| Variant | Tm [°C] | heat capacity change of unfolding [kcal/mol/K] | unfolding enthalpy (calorimetric) [kcal/mol] | unfolding enthalpy (van 't Hoff) [kcal/mol] |
| --- | --- | --- | --- | --- |
| MKALIVLGLVLLSVTVQGKVFERCELARTLKRLGMDGYRGISLANWMCLAKWESGYNTRATNYNAGDRSTDYGIFQINSRFWCNDGKTPGAVNACHLSCSALLQDNIADAVACAKRVVRDPQGIRAWVAWRNRCQNRDVRQYVQGCGV [Y81F] | 72.7 | 0.67 | 123 | 129 |

Same assay, conditions: Homo sapiens; pH 2.69; Thermal; DSC; glycine 0.05 M; reversible: yes; structure 1LZ1; whole UniProt chain shown

| Variant | Tm [°C] | heat capacity change of unfolding [kcal/mol/K] | unfolding enthalpy (calorimetric) [kcal/mol] | unfolding enthalpy (van 't Hoff) [kcal/mol] |
| --- | --- | --- | --- | --- |
| MKALIVLGLVLLSVTVQGKVFERCELARTLKRLGMDGYRGISLANWMCLAKWESGYNTRATNYNAGDRSTDFGIFQINSRYWCNDGKTPGAVNACHLSCSALLQDNIADAVACAKRVVRDPQGIRAWVAWRNRCQNRDVRQYVQGCGV [Y72F] | 61.7 | 0.89 | 105 | 112 |

Same assay, conditions: Homo sapiens; pH 2.82; Thermal; DSC; glycine 0.05 M; reversible: yes; structure 1LZ1; whole UniProt chain shown

| Variant | Tm [°C] | heat capacity change of unfolding [kcal/mol/K] | unfolding enthalpy (calorimetric) [kcal/mol] | unfolding enthalpy (van 't Hoff) [kcal/mol] |
| --- | --- | --- | --- | --- |
| MKALIVLGLVLLSVTVQGKVFERCELARTLKRLGMDGYRGISLANWMCLAKWESGYNTRATNYNAGDRSTDFGIFQINSRYWCNDGKTPGAVNACHLSCSALLQDNIADAVACAKRVVRDPQGIRAWVAWRNRCQNRDVRQYVQGCGV [Y72F] | 64 | 1.91 | 108 | 114 |

Same assay, conditions: Homo sapiens; pH 2.99; Thermal; DSC; glycine 0.05 M; reversible: yes; structure 1LZ1; whole UniProt chain shown

| Variant | Tm [°C] | heat capacity change of unfolding [kcal/mol/K] | unfolding enthalpy (calorimetric) [kcal/mol] | unfolding enthalpy (van 't Hoff) [kcal/mol] |
| --- | --- | --- | --- | --- |
| MKALIVLGLVLLSVTVQGKVFERCELARTLKRLGMDGYRGISLANWMCLAKWESGYNTRATNYNAGDRSTDFGIFQINSRYWCNDGKTPGAVNACHLSCSALLQDNIADAVACAKRVVRDPQGIRAWVAWRNRCQNRDVRQYVQGCGV [Y72F] | 67 | 1.34 | 114 | 120 |

Same assay, conditions: Homo sapiens; pH 3.13; Thermal; DSC; glycine 0.05 M; reversible: yes; structure 1LZ1; whole UniProt chain shown

| Variant | Tm [°C] | heat capacity change of unfolding [kcal/mol/K] | unfolding enthalpy (calorimetric) [kcal/mol] | unfolding enthalpy (van 't Hoff) [kcal/mol] |
| --- | --- | --- | --- | --- |
| MKALIVLGLVLLSVTVQGKVFERCELARTLKRLGMDGYRGISLANWMCLAKWESGYNTRATNYNAGDRSTDFGIFQINSRYWCNDGKTPGAVNACHLSCSALLQDNIADAVACAKRVVRDPQGIRAWVAWRNRCQNRDVRQYVQGCGV [Y72F] | 69.1 | 1.12 | 117 | 124 |

Same assay, conditions: Homo sapiens; pH 2.71; Thermal; DSC; glycine 0.05 M; reversible: yes; structure 1LZ1; whole UniProt chain shown

| Variant | Tm [°C] | heat capacity change of unfolding [kcal/mol/K] | unfolding enthalpy (calorimetric) [kcal/mol] | unfolding enthalpy (van 't Hoff) [kcal/mol] |
| --- | --- | --- | --- | --- |
| MKALIVLGLVLLSVTVQGKVFERCELARTLKRLGMDGYRGISLANWMCLAKWESGFNTRATNYNAGDRSTDYGIFQINSRYWCNDGKTPGAVNACHLSCSALLQDNIADAVACAKRVVRDPQGIRAWVAWRNRCQNRDVRQYVQGCGV [Y56F] | 64.6 | 1.03 | 113 | 117 |

Same assay, conditions: Homo sapiens; pH 2.92; Thermal; DSC; glycine 0.05 M; reversible: yes; structure 1LZ1; whole UniProt chain shown

| Variant | Tm [°C] | heat capacity change of unfolding [kcal/mol/K] | unfolding enthalpy (calorimetric) [kcal/mol] | unfolding enthalpy (van 't Hoff) [kcal/mol] |
| --- | --- | --- | --- | --- |
| MKALIVLGLVLLSVTVQGKVFERCELARTLKRLGMDGYRGISLANWMCLAKWESGFNTRATNYNAGDRSTDYGIFQINSRYWCNDGKTPGAVNACHLSCSALLQDNIADAVACAKRVVRDPQGIRAWVAWRNRCQNRDVRQYVQGCGV [Y56F] | 67.2 | 1.46 | 117 | 121 |

Same assay, conditions: Homo sapiens; pH 3.1; Thermal; DSC; glycine 0.05 M; reversible: yes; structure 1LZ1; whole UniProt chain shown

| Variant | Tm [°C] | heat capacity change of unfolding [kcal/mol/K] | unfolding enthalpy (calorimetric) [kcal/mol] | unfolding enthalpy (van 't Hoff) [kcal/mol] |
| --- | --- | --- | --- | --- |
| MKALIVLGLVLLSVTVQGKVFERCELARTLKRLGMDGYRGISLANWMCLAKWESGFNTRATNYNAGDRSTDYGIFQINSRYWCNDGKTPGAVNACHLSCSALLQDNIADAVACAKRVVRDPQGIRAWVAWRNRCQNRDVRQYVQGCGV [Y56F] | 70.3 | 0.96 | 121 | 124 |

Same assay, conditions: Homo sapiens; pH 3.25; Thermal; DSC; glycine 0.05 M; reversible: Yes; structure 1LZ1; whole UniProt chain shown

| Variant | Tm [°C] | heat capacity change of unfolding [kcal/mol/K] | unfolding enthalpy (calorimetric) [kcal/mol] | unfolding enthalpy (van 't Hoff) [kcal/mol] |
| --- | --- | --- | --- | --- |
| MKALIVLGLVLLSVTVQGKVFERCELARTLKRLGMDGYRGISLANWMCLAKWESGFNTRATNYNAGDRSTDYGIFQINSRYWCNDGKTPGAVNACHLSCSALLQDNIADAVACAKRVVRDPQGIRAWVAWRNRCQNRDVRQYVQGCGV [Y56F] | 72.4 | 1.12 | 123 | 126 |
